Experimental data reported in US11072647B2, “TGF-receptor II isoform, fusion peptide, methods of treatment and methods in vitro” (Onsejo Nacional DE Investigation Cientiticay Tecnica, priority 2013, dated 2021).

System: hASCs cells
Assay: Cytokine Array G5 of supernatants of lentivirally transduced hASCs
Assay type: cell-based, human
Design: key to IL-6* secreted by hASC / IGFBP-4 secreted by hASC / IL-7 secreted by hASC / LIF secreted by hASC / TNF-α secreted by hASC / FLT3-L secreted by hASC / SCF secreted by hASC / LIGHT secreted by hASC / IL-3 secreted by hASC / Oncostatin M secreted by hASC / FGF-7 secreted by hASC / FGF-9 secreted by hASC / Angiogenin secreted by hASC / BDNF secreted by hASC / NT-3 secreted by hASC / EGF secreted by hASC / NT-4 secreted by hASC / PIGF secreted by hASC / TIMP-1 secreted by hASC / GRO secreted by hASC / TIMP-2 secreted by hASC / CXCL1 (GROα) secreted by hASC / INF-γ secreted by hASC / CXCL6 (GCP-2) secreted by hASC / IL-2 secreted by hASC / CXCL9 (MIG) secreted by hASC / CXCL10 (IP-10) secreted by hASC / Osteopontin secreted by hASC / CXCL12 (SDF-1) secreted by hASC / Osteoprotegerin secreted by hASC / CXCL13 (BLC) secreted by hASC / CCL1 (I-309) secreted by hASC / Leptin secreted by hASC / CCL2 (MCP-1) secreted by hASC / CCL4 (MIP1b) secreted by hASC / GDNF secreted by hASC / CCL7 (MCP-3) secreted by hASC / IL-10 secreted by hASC / CCL8 (MCP-2) secreted by hASC / IL-13 secreted by hASC / CCL17 (TARC) secreted by hASC / IL-1α secreted by hASC / CCL18 (PARC) secreted by hASC / IL-1β secreted by hASC / CCL20 (MIP3a) secreted by hASC / CCL24 (Eotaxin-2) secreted by hASC / IL-12 p70 secreted by hASC / CCL26 (Eotaxin-3) secreted by hASC / IL-15 secreted by hASC / G-CSF secreted by hASC / IGF-1 secreted by hASC / M-CSF secreted by hASC / IGFBP-1 secreted by hASC / GM-CSF secreted by hASC / IGFBP-3 secreted by hASC / TNF-β secreted by hASC / Onc M secreted by hASC / VEGF secreted by hASC / CXCL5 (ENA-78) secreted by hASC / MIF secreted by hASC / CCL11 (Eotaxin) secreted by hASC / IL-5 secreted by hASC / TGF-β1 secreted by hASC: ↑: Increase or decrease of cytokines levels are referred to the levels secreted by cells transduced with the control vector Lt.eGFP; ↓: Increase or decrease of cytokines levels are referred to the levels secreted by cells transduced with the control vector Lt.eGFP; UC: unchanged levels with respect to cells transduced with the control vector Lt.eGFP; Abs: absent in mock transducer cells control; Abs: absent in mock transducer cells control
Method: Furthermore, the effect of TβRII-SE recombinant isoform was measured on a panel of 80 cytokines secreted by hASCs cells (FIG. 16). Cells were transduced with either control Lt-GFP, the TGF-β1 inhibitor Lt. TβRII-DN, or Lt-TβRII-SE and incubated in the presence or absence of exogenous TGF-β1. Collected supernatants were used to analyze the cytokines in a Cytokine Array G5 (Raybiotech, Inc. Norcross, USA).
Increase or decrease of cytokines levels are referred to the levels secreted by cells transduced with the control vector Lt.eGFP either in the presence (paracrine) or absence (autocrine) of exogenous TGF-β1. UC: unchanged levels with respect to cells transduced with the control vector Lt.eGFP. Abs: absent in mock transducer cells control. Dark grey boxes: decreased to undetected levels or absent in the supernatant of cells transduced with control vector Lt.eGFP.
A cytokine/chemokine array kit G5 (Ray Biotech Inc., Norcross, Ga.) was used to detect a panel of 80 secreted cytokines as recommended by the manufacturer. hASCs P7 untransduced or transduced with lentiviral vectors were grown for 72 h in a medium supplemented with 0.1% BSA. Supernatants were collected, filtered and frozen after collection. For densitometry analysis of the arrays, Typhoon 9410 Variable mode Imager (GE Healthcare Life Sciences) was used, and signal intensity values were measured using the Image analysis software ImageQuant TL 7.0 (GE Healthcare Life Sciences). Microarray data were analyzed with RayBio® Antibody Array Analysis Tool. Good data quality and adequate normalization were ensured using internal control normalization without background. Any ≥1.5-fold increase or ≤0.65-fold decrease in signal intensity for a single analyte between samples or groups may be considered a measurable and significant difference in expression, provided that both sets of signals are well above background (Mean background+3 standard deviations, accuracy≈99%).

[1] = Autocrine TGF-β1 (no exogenous TGF-β1), vs Lt.eGFP control
[2] = Paracrine TGF-β1 (3 pg/μl), vs Lt.eGFP control

B1: TβRII-SE: 80 amino acid soluble endogenous isoform of human TGF-β receptor II lacking the transmembrane domain, SEQ ID No. 2 (protein, listed as Homo sapiens)
chain: MGRGLLRGLWPLHIVLWTRIASTIPPHVQKSVNNDMIVTDNNGAVKFPQLCKFCDVRFSTCDNQKSCFSKVHYEGKKKAW
OPG secretion (ASC, high TGF-β1 concentration, vs Lt.eGFP-transduced control cells): dramatic drop | Angiogenin secreted by hASC [1]: UC | BDNF secreted by hASC [1]: UC | CCL1 (I-309) secreted by hASC [1]: UC | CCL2 (MCP-1) secreted by hASC [1]: UC | CCL4 (MIP1b) secreted by hASC [1]: UC | CCL7 (MCP-3) secreted by hASC [1]: UC | CCL8 (MCP-2) secreted by hASC [1]: ↑ | CCL17 (TARC) secreted by hASC [1]: UC | CCL18 (PARC) secreted by hASC [1]: ↓ | CCL20 (MIP3a) secreted by hASC [1]: abs | CCL24 (Eotaxin-2) secreted by hASC [1]: ↓ | CCL26 (Eotaxin-3) secreted by hASC [1]: abs | CXCL1 (GROα) secreted by hASC [1]: UC | CXCL6 (GCP-2) secreted by hASC [1]: UC | CXCL9 (MIG) secreted by hASC [1]: UC | CXCL10 (IP-10) secreted by hASC [1]: UC | CXCL12 (SDF-1) secreted by hASC [1]: UC | CXCL13 (BLC) secreted by hASC [1]: abs | EGF secreted by hASC [1]: abs | FGF-7 secreted by hASC [1]: ↓ | FGF-9 secreted by hASC [1]: UC | FLT3-L secreted by hASC [1]: ↓ | G-CSF secreted by hASC [1]: ↓ | GDNF secreted by hASC [1]: UC | GM-CSF secreted by hASC [1]: ↑ | GRO secreted by hASC [1]: UC | IGF-1 secreted by hASC [1]: ↓ | IGFBP-1 secreted by hASC [1]: UC | IGFBP-3 secreted by hASC [1]: ↓ | IGFBP-4 secreted by hASC [1]: abs | IL-1α secreted by hASC [1]: ↓ | IL-1β secreted by hASC [1]: abs | IL-2 secreted by hASC [1]: UC | IL-3 secreted by hASC [1]: UC | IL-6* secreted by hASC [1]: UC | IL-7 secreted by hASC [1]: ↓ | IL-10 secreted by hASC [1]: UC | IL-12 p70 secreted by hASC [1]: UC | IL-13 secreted by hASC [1]: ↓ | IL-15 secreted by hASC [1]: abs | INF-γ secreted by hASC [1]: ↓ | LIF secreted by hASC [1]: UC | LIGHT secreted by hASC [1]: abs | Leptin secreted by hASC [1]: ↓ | M-CSF secreted by hASC [1]: UC | NT-3 secreted by hASC [1]: UC | NT-4 secreted by hASC [1]: UC | Oncostatin M secreted by hASC [1]: ↓ | Osteopontin secreted by hASC [1]: abs | Osteoprotegerin secreted by hASC [1]: UC | PIGF secreted by hASC [1]: ↓ | SCF secreted by hASC [1]: abs | TIMP-1 secreted by hASC [1]: UC | TIMP-2 secreted by hASC [1]: UC | TNF-α secreted by hASC [1]: ↓ | Angiogenin secreted by hASC [2]: UC | BDNF secreted by hASC [2]: Abs | CCL1 (I-309) secreted by hASC [2]: abs | CCL2 (MCP-1) secreted by hASC [2]: UC | CCL4 (MIP1b) secreted by hASC [2]: abs | CCL8 (MCP-2) secreted by hASC [2]: UC | CCL11 (Eotaxin) secreted by hASC [2]: UC | CCL17 (TARC) secreted by hASC [2]: UC | CCL20 (MIP3a) secreted by hASC [2]: UC | CCL24 (Eotaxin-2) secreted by hASC [2]: abs | CCL26 (Eotaxin-3) secreted by hASC [2]: abs | CXCL1 (GROα) secreted by hASC [2]: abs | CXCL5 (ENA-78) secreted by hASC [2]: UC | CXCL6 (GCP-2) secreted by hASC [2]: ↓ | CXCL9 (MIG) secreted by hASC [2]: ↓ | CXCL10 (IP-10) secreted by hASC [2]: ↓ | CXCL12 (SDF-1) secreted by hASC [2]: abs | CXCL13 (BLC) secreted by hASC [2]: ↓ | EGF secreted by hASC [2]: ↓ | FGF-7 secreted by hASC [2]: Abs | FGF-9 secreted by hASC [2]: UC | FLT3-L secreted by hASC [2]: UC | G-CSF secreted by hASC [2]: ↓ | GDNF secreted by hASC [2]: Abs | GM-CSF secreted by hASC [2]: ↓ | GRO secreted by hASC [2]: UC | IGF-1 secreted by hASC [2]: Abs | IGFBP-1 secreted by hASC [2]: Abs | IGFBP-3 secreted by hASC [2]: ↓ | IGFBP-4 secreted by hASC [2]: ↑ | IL-1α secreted by hASC [2]: ↓ | IL-1β secreted by hASC [2]: UC | IL-2 secreted by hASC [2]: Abs | IL-3 secreted by hASC [2]: ↓ | IL-5 secreted by hASC [2]: ↓ | IL-6* secreted by hASC [2]: UC | IL-7 secreted by hASC [2]: ↓ | IL-10 secreted by hASC [2]: ↓ | IL-12 p70 secreted by hASC [2]: ↓ | IL-13 secreted by hASC [2]: ↓ | IL-15 secreted by hASC [2]: ↓ | INF-γ secreted by hASC [2]: ↓ | LIF secreted by hASC [2]: UC | LIGHT secreted by hASC [2]: ↓ | M-CSF secreted by hASC [2]: abs | MIF secreted by hASC [2]: UC | NT-3 secreted by hASC [2]: ↓ | NT-4 secreted by hASC [2]: Abs | Onc M secreted by hASC [2]: abs | Osteopontin secreted by hASC [2]: ↓ | PIGF secreted by hASC [2]: ↓ | SCF secreted by hASC [2]: UC | TGF-β1 secreted by hASC [2]: UC | TIMP-1 secreted by hASC [2]: UC | TNF-α secreted by hASC [2]: ↓ | TNF-β secreted by hASC [2]: ↓ | VEGF secreted by hASC [2]: UC | HGF secretion upregulation (absence of exogenous TGF-β1): 7.65 times | HGF secretion upregulation (presence of exogenous TGF-β1): 4.16 times
